The target in test [1] is hemagglutinin (HA) of H1N1 influenza A strain A/Fort Monmouth/1/1947, mature HA1/HA2 trimer (Influenza A virus H1N1, strain A/Fort Monmouth/1/1947). As to the kind of experiment: crystal structure.
Test [2] deals with hemagglutinin (HA) of H1N1 influenza A strain A/Denver/57/1957, mature HA1/HA2 (Influenza A virus H1N1, strain A/Denver/57/1957). Briefly: crystal structure.
Test [3] addresses hemagglutinin (HA) of H1N1 influenza A strain A/Melbourne/1/1946, mature HA1/HA2 trimer (Influenza A virus H1N1, strain A/Melbourne/1/1946). Briefly: crystal structure.
For test [4], the target named is hemagglutinin (HA) of H1N1 influenza A strain A/Netherlands/002P1/1951, mature HA1/HA2 trimer (Influenza A virus H1N1, strain A/Netherlands/002P1/1951). As to the kind of experiment: crystal structure.
The target of test [5] is hemagglutinin (HA) of H1N1 influenza A strain A/Hickox/JY2/1940, mature HA1/HA2 trimer (Influenza A virus H1N1, strain A/Hickox/JY2/1940) (UniProt Q0HD60). Briefly: crystal structure.
Test [6] has as its target hemagglutinin (HA) of H1N1 influenza A strain A/Iowa/1943 (Influenza A virus H1N1, A/Iowa/1943 …, UniProt A4GCK8, strain). Briefly: SEC. The following applies: both partners purified.

Molecule “hemagglutinin (HA) of H1N1 influenza A strain A/Fort Monmouth/1/1947, mature HA1/HA2 trimer (natural protein)” had a stoichiometry N in test [1] of 3. In test [2], “hemagglutinin (HA) of H1N1 influenza A strain A/Denver/57/1957, mature HA1/HA2 (natural protein)” registered a stoichiometry N of 3. In test [3], “hemagglutinin (HA) of H1N1 influenza A strain A/Melbourne/1/1946, mature HA1/HA2 trimer (natural protein)” showed a stoichiometry N of 3. As for “hemagglutinin (HA) of H1N1 influenza A strain A/Netherlands/002P1/1951, mature HA1/HA2 trimer (natural protein)”, the stoichiometry N in test [4] stood at 3. Consider “hemagglutinin (HA) of H1N1 influenza A strain A/Hickox/JY2/1940, mature HA1/HA2 trimer (from UniProt Q0HD60) (natural protein)”, for which, in test [5], the stoichiometry N came to 3.

B1: anti-influenza head-binding antibody C05 fragment antigen binding (Fab) (Fab, V domains shown)
VH: EVQLQESGGGLVQPGESLRLSCVGSGSSFGESTLSYYAVSWVRQAPGKGLEWLSIINAGGGDIDYADSVEGRFTISRDNSKETLYLQMTNLRVEDTGVYYCAKHMSMQQVVSAGWERADLVGDAFDVWGQGTMVTVSS
VL: DIQLTQSPSSLSASVGDRVTLTCQASQDIRKFLNWYQQKPGKGPKLLIYDASNLQRGVPSRFSGGGSGTDFTLIISSLQPEDVGTYYCQQYDGLPFTFGGGTKVVIK
notes: also called C05 Fab; C05 antibody; not shown: His6, C-terminal, kept
On to B1, for which the binding result in test [6] was “binds”.

In general, stoichiometry N refers to a count of units in the complex or per binding partner.
